Data: PMC12775393

Experiments:
[1] = target: E. coli MRE600 tight-couple 70S ribosome (natural), translating the V50 hairpin mRNA (E. coli (endogenous in MRE600)) (UniProt P0A7K2); assay: optical tweezers with single-molecule fluorescence detection (fleezers); hairpin unwinding assay as a1, with a mixture of 1 mM GTP and 0.5 mM GDPNP; slow population of a bi-exponential fit
[2] = target: E. coli MRE600 tight-couple 70S ribosome (natural), translating the V50 hairpin mRNA (E. coli (endogenous in MRE600)) (UniProt P0A7K2); assay: optical tweezers with single-molecule fluorescence detection (fleezers); hairpin unwinding assay as a1, GDPNP:GTP ratio 1:9 at constant total nucleotide concentration; slow population of a bi-exponential fit
[3] = target: E. coli MRE600 tight-couple 70S ribosome (natural), translating the V50 hairpin mRNA (E. coli (endogenous in MRE600)) (UniProt P0A7K2); assay: optical tweezers with single-molecule fluorescence detection (fleezers); hairpin unwinding assay; ribosome stalled on the V50 mRNA hairpin tethered between two beads at ~14 pN (13.5-14.5 pN); 10 nM Cy3-labeled EF-G in the translation mix, 1 mM GTP, 1x TLC buffer (40 mM HEPES pH 7.5, 60 mM NH4Cl, 10 mM Mg(OAc)2, 6 mM βME)
[4] = target: E. coli MRE600 tight-couple 70S ribosome (natural), translating the V50 hairpin mRNA (E. coli (endogenous in MRE600)) (UniProt P0A7K2); assay: optical tweezers with single-molecule fluorescence detection (fleezers); hairpin unwinding assay as a1, GDPNP:GTP ratio 3:1 at constant total nucleotide concentration; slow population of a bi-exponential fit
[5] = target: E. coli MRE600 tight-couple 70S ribosome (natural), translating the V50 hairpin mRNA (E. coli (endogenous in MRE600)) (UniProt P0A7K2); assay: optical tweezers with single-molecule fluorescence detection (fleezers); hairpin unwinding assay as a1, with a mixture of 1 mM GTP and 0.5 mM GTPγS; slow population of a bi-exponential fit
[6] = target: S16-biotinylated E. coli 70S ribosome, translating the hairpin-less mRNA (E. coli) (UniProt P0A7K2); assay: optical tweezers with single-molecule fluorescence detection (fleezers); assisting force assay; ribosome tethered by biotinylated S16 to one bead and the 5' end of a hairpin-less mRNA to the other, 9-12 pN; Cy3-labeled EF-G in solution, GTP (1 mM stated for the H92Q and H92A mutants), 1x TLC buffer

| Substance | τ release, slow (GDPNP) population [1] [s] | τ release, slow (GDPNP) population [2] [s] | mean dwell time of unproductive binding events (τ unproductive) [3] [ms] | mean total dwell time of EF-G on the ribosome (τ unwinding + τ release) [3] [ms] | τ release (time between hairpin unwinding and EF-G release) [3] [s] | τ release, slow (GDPNP) population [4] [s] | τ release, slow (GTPγS) population [5] [s] | mean total dwell time of EF-G on the ribosome (τpre + τ post) [6] [ms] | τ post (time between the mRNA step and EF-G unbinding) [6] [s] |
| --- | --- | --- | --- | --- | --- | --- | --- | --- | --- |
| Cy3-labeled EF-G, single-cysteine variant EF-G(S73C) (from UniProt P0A6M8 1-704) (enzyme) | 8.5 | 2.5 | 300 | 445 | 0.38 | 17 | 1.8 | 308 |  |
| Cy3-labeled H92A EF-G (made from EF-G(S73C)) (from UniProt P0A6M8 1-704) (enzyme) |  |  |  |  | 20 |  |  |  | > 20 |
| Cy3-labeled H92Q EF-G (made from EF-G(S73C)) (from UniProt P0A6M8 1-704) (enzyme) |  |  |  |  | 2 |  |  |  |  |
